Among the data in doi:10.1101/2021.07.16.452612 are Kd and dH values, retold here.

The target in the assay is Recombinant wild-type mouse talin1 fragment R11 (residues 1,974–2,140) (mouse) (UniProt P26039). As to the kind of experiment: ITC.
Sequence of UniProt P26039 (P26039 1974-2140): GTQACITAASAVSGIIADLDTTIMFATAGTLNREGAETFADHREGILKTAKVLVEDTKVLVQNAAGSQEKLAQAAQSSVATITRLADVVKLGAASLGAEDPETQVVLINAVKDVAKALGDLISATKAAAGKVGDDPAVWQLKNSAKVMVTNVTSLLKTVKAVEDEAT

The Kd is the free concentration of one partner at which half of the binding sites on the other are occupied at equilibrium, for simple one-to-one binding. “tensin3 H1 peptide (from UniProt Q68CZ2 692-712)”: the Kd was found to be 17 µM and the dH came to 4.8 kcal/mol.
